Two substances from patent US6515110 can be followed below.

For assay [1], the target named is TAG-72 antigen on a human breast carcinoma extract (human). Description: competition ELISA, competitor biotin-CC49 IgG, human breast carcinoma extract. Background: In an ELISA, binding on a coated surface is turned into a signal by an enzyme label.
Assay [2] shares this target. Description: competition RIA, competitor 125I-CC49 IgG, human breast carcinoma extract.

“CC49/4-4-20 heterodimer Fv (fraction 5) (bispecific antibody)” had a fold higher protein concentration needed to displace the IgG (against CC49/212 single-chain Fv) in assay [1] of 200 fold. With “CC49/212 single-chain antigen-binding protein (monomer) (scFv)”, in assay [2], the fold higher protein concentration needed to displace the IgG (against CC49 IgG and bivalent CC49/212) amounted to 10 fold.
